Assay results as given in publication PMC4764573, “A deep proteomics perspective on CRM1-mediated nuclear export and nucleocytoplasmic partitioning” (eLife, 2015).

Molecular target: mmCRM1 (mouse CRM1), in solution in the direct binding assay (mouse, UniProt Q6P5F9 1-1071)
Assay: pull-down; 250 pmoles His14-ZZ-bdSUMO tagged candidate on 20 μl anti-ZZ beads; 300 pmoles mmCRM1 with or without 1500 pmoles RanGTP (hsRanQ69L^5-180) in 500 µl; 3 hr at 4°C; elution by bdSENP1 protease; SDS-PAGE and Coomassie-staining
Conditions: both partners purified

Chain of mmCRM1 (mouse CRM1), in solution in the direct binding assay (Q6P5F9 whole entry): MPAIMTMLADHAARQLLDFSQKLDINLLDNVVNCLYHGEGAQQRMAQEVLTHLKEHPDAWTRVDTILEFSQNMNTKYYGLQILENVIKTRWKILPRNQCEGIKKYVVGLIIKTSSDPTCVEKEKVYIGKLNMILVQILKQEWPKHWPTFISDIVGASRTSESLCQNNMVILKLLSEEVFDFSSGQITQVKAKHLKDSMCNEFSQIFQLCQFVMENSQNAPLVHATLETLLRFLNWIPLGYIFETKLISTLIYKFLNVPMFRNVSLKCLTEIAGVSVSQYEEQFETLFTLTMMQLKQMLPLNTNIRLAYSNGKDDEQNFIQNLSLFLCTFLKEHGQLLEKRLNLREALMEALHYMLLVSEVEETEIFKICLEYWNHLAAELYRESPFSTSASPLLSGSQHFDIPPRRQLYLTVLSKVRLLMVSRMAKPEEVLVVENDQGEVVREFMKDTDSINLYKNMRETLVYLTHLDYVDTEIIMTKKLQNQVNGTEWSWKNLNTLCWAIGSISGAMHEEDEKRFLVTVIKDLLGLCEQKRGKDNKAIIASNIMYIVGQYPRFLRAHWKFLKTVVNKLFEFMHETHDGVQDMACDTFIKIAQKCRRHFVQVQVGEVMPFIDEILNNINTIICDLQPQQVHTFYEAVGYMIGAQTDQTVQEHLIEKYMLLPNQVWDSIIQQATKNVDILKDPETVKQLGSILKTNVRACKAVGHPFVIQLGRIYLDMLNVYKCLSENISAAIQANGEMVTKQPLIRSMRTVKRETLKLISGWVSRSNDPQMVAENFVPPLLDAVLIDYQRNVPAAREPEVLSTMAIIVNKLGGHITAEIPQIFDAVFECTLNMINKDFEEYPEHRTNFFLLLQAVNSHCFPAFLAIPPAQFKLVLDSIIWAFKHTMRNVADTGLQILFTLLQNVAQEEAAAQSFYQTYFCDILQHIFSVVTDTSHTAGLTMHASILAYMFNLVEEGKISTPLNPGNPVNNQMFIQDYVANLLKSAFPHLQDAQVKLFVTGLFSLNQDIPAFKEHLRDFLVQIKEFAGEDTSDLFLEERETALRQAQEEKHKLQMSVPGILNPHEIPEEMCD

B1: H14-ZZ-Sumo tagged ARP2/3 1b (natural protein)
chain: not shown
notes: subunit 1b of the ARP2/3 complex, Xenopus; see Supplementary file 6; also called subunit 1b of the ARP2/3 complex; source: E. coli, purified (Ni2+ chelate chromatography, imidazole elution)
B1: binds.
